Results: patent US20100298612

How the values were obtained:
[1] = target: T1, Nocardia NRRL5646 carboxylic acid reductase (CAR)
T1 chain: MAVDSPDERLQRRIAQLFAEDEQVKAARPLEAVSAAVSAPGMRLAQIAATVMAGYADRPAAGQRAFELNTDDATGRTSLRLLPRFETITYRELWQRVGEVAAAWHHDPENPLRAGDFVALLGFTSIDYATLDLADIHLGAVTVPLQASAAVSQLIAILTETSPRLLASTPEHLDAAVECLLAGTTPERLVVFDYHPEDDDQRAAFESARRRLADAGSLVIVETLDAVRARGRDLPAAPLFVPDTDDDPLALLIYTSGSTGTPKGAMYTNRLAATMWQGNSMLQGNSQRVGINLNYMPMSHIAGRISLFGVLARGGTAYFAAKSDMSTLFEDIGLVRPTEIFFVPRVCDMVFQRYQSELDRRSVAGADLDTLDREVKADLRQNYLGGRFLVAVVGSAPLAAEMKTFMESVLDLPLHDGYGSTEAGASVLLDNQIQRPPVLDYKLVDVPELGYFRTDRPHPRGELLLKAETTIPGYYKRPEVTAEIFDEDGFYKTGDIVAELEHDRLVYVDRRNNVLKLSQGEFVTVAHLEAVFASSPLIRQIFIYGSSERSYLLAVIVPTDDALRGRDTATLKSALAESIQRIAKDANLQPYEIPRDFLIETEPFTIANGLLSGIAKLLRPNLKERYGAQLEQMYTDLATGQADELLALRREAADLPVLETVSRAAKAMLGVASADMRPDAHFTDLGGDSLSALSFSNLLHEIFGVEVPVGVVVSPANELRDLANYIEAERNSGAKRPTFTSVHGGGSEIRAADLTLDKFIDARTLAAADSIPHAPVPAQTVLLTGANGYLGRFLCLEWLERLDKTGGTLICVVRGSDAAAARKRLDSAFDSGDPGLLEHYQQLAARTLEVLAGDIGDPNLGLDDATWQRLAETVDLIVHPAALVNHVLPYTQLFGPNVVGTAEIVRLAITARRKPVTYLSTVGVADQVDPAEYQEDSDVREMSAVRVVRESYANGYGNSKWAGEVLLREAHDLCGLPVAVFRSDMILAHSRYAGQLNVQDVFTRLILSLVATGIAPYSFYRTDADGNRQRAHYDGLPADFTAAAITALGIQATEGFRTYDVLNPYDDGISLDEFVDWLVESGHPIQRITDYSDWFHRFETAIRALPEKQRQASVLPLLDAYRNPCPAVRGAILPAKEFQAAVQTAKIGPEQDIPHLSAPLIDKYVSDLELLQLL

[2] = target: T2, Mycobacterium sp. (strain JLS) carboxylic acid reductase (CAR)
T2 chain: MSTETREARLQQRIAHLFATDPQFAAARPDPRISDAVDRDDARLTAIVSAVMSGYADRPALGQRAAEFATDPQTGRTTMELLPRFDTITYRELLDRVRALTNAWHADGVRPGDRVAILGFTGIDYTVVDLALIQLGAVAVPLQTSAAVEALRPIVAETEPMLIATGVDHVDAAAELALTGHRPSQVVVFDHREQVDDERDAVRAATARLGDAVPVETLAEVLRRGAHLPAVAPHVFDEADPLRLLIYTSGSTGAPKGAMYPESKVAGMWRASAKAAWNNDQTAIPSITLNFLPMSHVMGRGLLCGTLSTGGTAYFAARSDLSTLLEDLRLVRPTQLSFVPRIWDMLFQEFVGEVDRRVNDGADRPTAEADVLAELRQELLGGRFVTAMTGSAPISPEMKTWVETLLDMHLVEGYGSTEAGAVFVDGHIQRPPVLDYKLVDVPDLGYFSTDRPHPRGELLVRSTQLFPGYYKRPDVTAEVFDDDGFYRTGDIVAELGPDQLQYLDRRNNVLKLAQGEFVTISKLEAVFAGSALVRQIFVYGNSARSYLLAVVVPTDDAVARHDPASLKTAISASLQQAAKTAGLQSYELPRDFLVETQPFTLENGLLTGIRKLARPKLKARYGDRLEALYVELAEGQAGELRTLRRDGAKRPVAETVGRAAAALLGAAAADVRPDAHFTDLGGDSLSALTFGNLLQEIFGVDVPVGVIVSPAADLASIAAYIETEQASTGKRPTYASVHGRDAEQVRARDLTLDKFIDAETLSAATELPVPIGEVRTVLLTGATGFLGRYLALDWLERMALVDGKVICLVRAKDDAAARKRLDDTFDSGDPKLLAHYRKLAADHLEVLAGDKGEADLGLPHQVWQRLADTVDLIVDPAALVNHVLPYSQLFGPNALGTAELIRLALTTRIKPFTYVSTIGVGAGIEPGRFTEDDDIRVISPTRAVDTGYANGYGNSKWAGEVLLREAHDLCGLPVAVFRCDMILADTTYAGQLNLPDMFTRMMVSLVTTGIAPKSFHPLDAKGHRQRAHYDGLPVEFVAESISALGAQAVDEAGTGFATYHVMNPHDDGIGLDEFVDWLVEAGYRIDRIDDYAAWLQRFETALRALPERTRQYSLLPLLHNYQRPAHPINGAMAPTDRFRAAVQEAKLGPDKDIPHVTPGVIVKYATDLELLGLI

B1: Nocardia NRRL 5646 phosphopantetheinyl transferase (PPTase) (protein)
chain: MIETILPAGVESAELLEYPEDLKAHPAEEHLIAKSVEKRRRDFIGARHCARLALAELGEPPVAIGKGERGAPIWPRGVVGSLTHCDGYRAAAVAHKMRFRSIGIDAEPHATLPEGVLDSVSLPPEREWLKTTDSALHLDRLLFCAKEATYKAWWPLTARWLGFEEAHITFEIEDGSADSGNGTFHSELLVPGQTNDGGTPLLSFDGRWLIADGFILTAIAYA
How did the “CAR activity (in vitro conversion of hexadecanoic acid to 1-hexadecanol; Y. lipolytica CAR lysate pre-incubated with E. coli Nocardia PPTase lysate), fold improvement” value [1] turn out when B1 was run?
The value was “by 3-5 times”.

What about the “CAR activity (in vitro conversion of hexadecanoic acid to 1-hexadecanol; Y. lipolytica CAR lysate pre-incubated with E. coli Nocardia PPTase lysate), fold improvement” value [2] of the same protein?
The value was “by 9-20 times”.
